From the DeepSol protein solubility set

Experiment: soluble on expression in E. coli; label from the status in PepcDB or PDB records

Sequence	soluble on expression in E. coli
YPMVNNYLEMGHGLYVVEIHVKSNLHDTPLSKLISRGSYNIQPILVKREEAVYTNINDEFVLNEFDTLLLCGSRAELKYVAPRLV	not soluble
MPVFSINVNVKVPAEKQNEILKELSTVLGKLLNKPEQYMCIHFHEDQGILYAGTTEPAGFAVLKSIGGVGSAKQNNAISAVVFPIIEKHLGIPGNRLYIEFVNLGAADIAYNGQTFA	not soluble
MITLPTGTKIWIIAGITDMRCGFNGLASKVQNTLKDDPFSGHIFVFRGRSGKMVKILWADRDGLCLFAKRLAGDPGRESAPDASSVIHATGGDRVATSQTDRTAWHPDITRDKTRE	not soluble
MMCGGRGTRLDAAAEKPLFEVGGRAMVDHVRAALEAAGRIDTTHAAVSPHAPDTAAHLAATPLSLIETPGDGYVADLTAALDAVGTPVLTVAADLPLLAPAVVDTVVAAADGATTSACVPRALKHELGVSTDADADAWVPTGVNVVGGGDTEATHRSFDARLAVNVNHRSDAAVAARLLAATDRRNHPRLEHHHHHH	not soluble
MAHHHHHHMGWFRSSASPEAGTATAEAPAAAAEHGSQHRQPQPEANSPAPLTEAEQLDLLVAGARLDDTEAQDTARFLGSNRRHMYADGLLSCAAYTFSGLHHIQGQSSALTLLTMWTVGTTFLVDVAERKYLQESLQGTLRTAKTTSEAEKPLLLDQPPHNATPASTPRKAAVVPAMPTSSDSLSSAIKKPAPRDKEKLAEQQRKVFLTQAVASWLWMLASFQQFKVHKRLKWCGYSSWMGLGCAGYYTTRHLYNLLVK	soluble
MDMMWISYHLKKGGRRLRIRIGIDIGSTHTDAVALEGKELIVADKVMTTPDLTTGLLNAISRVMKKLGERKNEVDTLMIGTTHGLNALHQGKGLNRVATIRIGLPAGEGVPPVFDWPEQLSNFVTYRYMVRGGHEYTGEEIVELDEGKIKEIAEAINGKVDAIAISSIFSVVNSSHEIRAREILREKG	not soluble
VTLSLTKDNFDDVVNNADIILVEFYAPWCGHCKKLAPEYEKAAKELSKRSPPIPLAKVDATEQTDLAKRFDVSGYPTLKIFRKGRPFDYNGPREKYGIVDYMIEQSG	soluble
MKSGRFIGVMSGTSLDGVDVVLAAIDETMVAQQASLTWPIPVHLKKGILDICQGQPLTLSQLGQLDTQLGRLFAQAVNALLAQQRLQPRDIVAIGCHGQTVWHEPTGEAPHTLQIGDNNHIVAHTGITVVGDFRRRDIALGGQGAPLVPAFHHALLGHPTEKRMVLNIGGIANLSLLFPGQAVRGYDTGPGNMLMDAWIWRQCAQPYDKDAAWAKEGQVILPLLQKMLRDPYFAASAPKSTGREYFNYGWLERHLAAFPGADARDVQATLAELTAVSIAQQVLLNGGCERLMVCGGGGRNPLVMARLAALLPGIEVSTTDKAGISGDDMEALAFAWLAWRTLAGLPGNLPSVTGATEASVLGAIYPANPITQS	not soluble
MSLILKEGEVVFEVPDKLTVTKKDEVFYNPRMKTCRDISIAVIQAFLNLYHKRDKFYIADALAGSGIRGLRYAKELEFNGELKVFLNDINPKAYEKIINNAKLNEIENIDVFNEDANTFLSKHFRFFNVVDIDPFGSPAPYVEQAIRALVTRNGLLCLTATDTAALCGRSKKSCLRKYLAYPLFGRDCHEFALRVLVGYVMRMATKYELALKPVFCHATDHYVRVYLVTDRGAKRADKVFEMLGYVKDVNGIKIIKKFEEGYEKGFAGPLYIGNLYDKALVEEALKIAEKREFSERVLKILNAIKGESAINQVGCYDTHQIGKMLKISVPPMQDIINKLKEMGFNAVVTHYNPKGIKTDATLKNVIEAIYQCTKIREGHHHHHH	soluble
KKSPMLCGQYPVKSEGKELKIVVQPETQHRARYLTEGSRGSVKDRTQQGFPTVKLEGHNEPVVLQVFVGNDSGRVKPHGFYQACRVTGRNTTPCKEVDIEGTTVIEVGLDPSNNMTLAVDCVGILKLRNADVEARIGIAGSKKKSTRARLVFRVNIMRKDGSTLTLQTPSSPILCTQPAGVPEILKKSLHSCSVKGEEEVFLIGKNFLKGTKVIFQENVSDENSWKSEAEIDMELFHQNHLIVKVPPYHDQHITLPVSVGIYVVTNAGRSHDVQPFTYTPD	soluble
MSNTKTASTGFAELLKDRREQVKMDHAALASLLGETPETVAAWENGEGGELTLTQLGRIAHVLGTSIGALTPPAGNDLDDGVIIQMPDERPILKGVRDNVDYYVYNCLVRTKRAPSLVPLVVDVLTDNPDDAKFNSGHAGNEFLFVLEGEIHMKWGDKENPKEALLPTGASMFVEEHVPHAFTAAKGTGSAKLIAVNF	soluble
MGHHHHHHSHMEPEAFEICPYDPHHRIPLSRFQYHLASCRRKNPKKAKKMATCKYNACHVVPIKNLEEHEAVCVNRSAVEEEDTENPLKVSPPSSEQNDDTQQVSPCLPSPDIWNVDGANCQHVFVLKTFFPQKVVCENDTKESARETSPQKILRPGQ	not soluble
MSIAQEFEKANTHYSSNFTKRDLPLPPARKVAVVICMDARIDPAASLGLTEGDAHVIRNAGGRASDALRSVIISQRLLGTREIVVVHHTDCGMLTFSDNDLRGIVAKETGHNVDHFAFLPFGDLEKSVKDDVEFFKRNPLVLDVPVTGYIYDVKSGAINKVDS	soluble
GAMDPEFQQSKVAPSSAASRPVLSSRSDQSQKNEVFLDVVERLSVLIASNGSLLKVDVQGEIRLKSFLPSGSEMRIGLTEEFSVGKSELRGYGPGIRVDEVSFHSSVNLDEFESHRILRLQPPQGELTVMRYQLSDDLPSPLPFRLFPSVQWDRGSGRLQVYLKLRCDLLSKSQALNVRLHLPLPRGVVSLSQELSSPEQKAELAEGALRWDLPRVQGGSQLSGLFQMDVPGPPGPPSHGLSTSASPLGLGPASLSFELPRHTCSGLQVRFLRLAFRPSGNANPHKWVRHLSHSDAYVIRI	soluble
GSFIDIEFPEWFHEGLSRHQAENLLMGKDIGFFIIRASQSSPGDFSISVRHEDDVQHFKVMRDTKGNYFLWTEKFPSLNKLVDYYRTTSISKQKQVFLRD	soluble
DNPLESPPPEIVKQGKEAVRQYFQSIEEARSKGEALVHLQEIKVHLIGDGMAGKTSLLKQLIGETFDPKESQTHGLNVVTKQAPNIKGLENDDELKECLFHFWDFGGQEIMHASHQFFMTRSSVYMLLLDSRTDSNKHYWLRHIEKYGGKSPVIVVMNKIDENPSYNIEQKKINERFPAIENRFHRISCKNGDGVESIAKSLKSAVLHPDSIYGTPLAPSWIKVKEKLVEATTAQRYLNRTEVEKICNDSGITDPGERKTLLGYLNNLGIVLYFEALDLSEIYVLDPHWVTIGVYRIINSSKTKNGHLNTSALGYILNEEQIRCDEYDPAKNNKFTYTLLEQRYLLDIMKQFELCYDEGKGLFIIPSNLPTQIDNEPEITEGEPLRFIMKYDYLPSTIIPRLMIAMQHQILDRMQWRYGMVLKSQDHEGALAKVVAETKDSTITIAIQGEPRCKREYLSIIWYEIKKINANFTNLDVKEFIPLPGHPDELVEYKELLGLEKMGRDRYVSGKLEKVFSVSKMLDSVISKEERNKER	soluble
MGSDKIHHHHHHMINELKKTKSRSEIKREQILHSAIELFCVQGFPNTSMDEVAKLAGVSKQTVYAHFGSKDDLFVAAIESRCIAHQLTGDLLFDPKHPEVSIMRFSQQFGEMIVSHETMAVFKTCVAQAESHPELPRLFFNAGPKHVLGLLSGFLQLVDKQGGYHFPKPHDSAIRLCLMLFGELKLRLELGLEVEELRLSRDAYIEETAQMFLRAHRV	not soluble
MKTICVFAGSNPGGNEAYKRKAAELGVYMAEQGIGLVYGGSRVGLMGTIADAIMENGGTAIGVMPSGLFSGEVVHQNLTELIEVNGMHERKAKMSELADGFISMPGGFGTYEELFEVLCWAQIGIHQKPIGLYNVNGYFEPMMKMVKYSIQEGFSNESHLKLIHSSSRPDELIEQMQNYSYPILEKKWTEI	soluble
MGKTNDWLDFDQLAEEKVRDALKPPSMYKVILVNDDYTPMEFVIDVLQKFFSYDVERATQLMLAVHYQGKAICGVFTAEVAETKVAMVNKYARENEHPLLCTLEKAGA	soluble
MAHSQVGIQLISESTEKTLAELIALCAEHNIIHNEKSPLALVQTDDRLELRKLDEPKLGAVYVDFVGGTMAHRRKFGGGRGEAVAKAVGIKGSALPTVIDATAGLGRDAFVLAAIGCQVRLVERHPVVFLLLQDGLNRAYQDEEIGEMLQQNLHLLNVQHINELDPNSDYADVVYLDPMYPHKQKSALVKKEMRVFQHLVGADLDADELLLPALQLAKKRVVVKRPDYAEFLCGKQPHFSHETKNHRFDIYMGASQC	soluble
MGSDKIHHHHHHQTQVIAHRGFWKTEGSAQNSIAALLKADSIGCYGSEFDVWLAADDQLVVNHDPTFKGKRMENSPSTALTAIKLDNGESLPTLAKYLKAAQPLHTRLILELKAHSTPLRETKAIEKIVALVKDMGLEERMEYITFSLHATKEFIRLAPEGTPVYYLDGNLSPKELKELGCAGPDYHYTVFRKHPEWIQECHDLGMKVNAWTVNKTDDMKWLIDRKVDFITTNEPVQLKNLLKK	not soluble
MNNVSEERVAEMIWDAVSEGATLKDVHGIPQDMMDGLYAHAYEFYNQGRLDEAETFFRFLCIYDFYNPDYTMGLAAVCQLKKQFQKACDLYAVAFTLLKNDYRPVFFTGQCQLLMRKAAKARQCFELVNERTEDESLRAKALVYLEALKTAETEQHSEQEKELEHHHHHH	soluble
MGSDKIHHHHHHMTKREGGIKMAEKRRKRVVILGAAGRDFHNFNVFFRNNPEYEVVAFTATQIPDIEGRIYPPELAGELYPNGIPILPEDDLEKIIKEKDVDIVVFAYSDVSHEHVMHLASRAHSAGADFWLLGPKSTMIESKKPVVAVTAVRTGCGKSQTSRKVAQLLQEMGYKVAVIRHPMPYGDLRKQIVQRFASFEDLDRYECTIEEREEYEPYIERGMVVYAGVDYEKILREAEKEADIILWDGGNNDFPFYKPDLWIVVTDPHRPGHELTHHPGETNFRSADVIIINKIDTAYPENVQKIRENIEKVNPNAIVIEAASPIFVDKPELIKGKRVLVIEDGPTLTHGGMSYGAGYIAAKKFGAKEIVDPRPYAVGSIIETYKKYPHLSNILPAMGYGKKQIKELEETINRADADVVIMGTPVDLRRFMNLNKPAVRVKYELEEIGQPKLKDILEEWVKKCEKLKK	not soluble
MSLRSTKTIHVISCHAEGEVGDVIVGGVAPPPGETLWEQRSFIARDQTLRNFVLNEPRGGVFRHVNLLVPPRHPEADAAFIIMEPEDTPPMSGSNSICVSTVLLDGGIVPMIEPITEMVLEAPGGLVRVKAECRNGKAERIFVQNVTSFADKLSVPLDVEGIGTLTVDTAYGGDSFVVVDAEALGFAIVEDEAKDIARLGVRITNAANEQLGFSHPENPDWNHISFCAFCGPLSQTPTGLTGRSAVAIQPGKVDRSPTGTAVSARMALMAARGQMTIGDTFEAVSIIGSSFTGRIVSQQMAGDRPGIVPEISGRGWITGIHQHMLDPSDPWPGGYKLSDTWGAEGHHHHHH	soluble
MGSDKIHHHHHHMDRVQAMRVFVAVVDCGGFTRAAQQLQLPRATVSSAVQQLEAQLGARLLHRTTRRVQLTLDGGTFYERCQQLLADFDELESLFSQQGASPRGKLRIDVPGPIGRQVLAPALPEFFRLYPGIELELGVTDRPVDLIQEGVDCVIRVGALAESRLVARRIGMLPQGNYASPDYLAAFGAPASPDALAGHRAVNYASPSTGKVFAWEYLQDGERRELALQSLVSVNQVESYIACALAGLGMIQLPRYDAEPHVAAGALVEVLADWPPPAMPVSVLYPHRRHLSRRVQVFVEWAGALLRERLRLGA	not soluble
